Data: paper PMC8631942

How the values were obtained:
SHP2 = SHP2 (UniProt Q06124); experiment: GFP-Trap co-IP, SHP2 blot; details: reference: BTLA wild type
SHP1 = SHP1 (UniProt P29350); experiment: GFP-Trap co-IP, SHP1 blot; details: reference: BTLA wild type

Substance	binding against the reference (SHP2; sites Y282)	binding against the reference (SHP1; sites Y282)	binding against the reference (SHP2; sites Y257)	binding against the reference (SHP1; sites Y257)
BTLA (from UniProt Q7Z6A9) BTLAYYYF (Y282F)	lost	lost	–	–
BTLA (from UniProt Q7Z6A9) BTLAYYFY (Y257F)	–	–	lost	lost
